The series is described as follows: soluble fraction after stress (log2 fold change); higher = more stays soluble; pooled small domains, quantitative proteomics. The conditions noted are these: stress: pH 4. Summed up:
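Custom libraries of small protein domains were pooled and measured with high-throughput quantitative proteomics after pH 4 stress. The read-out is the fold change in the amount of each domain that stays soluble after the acid stress, taken as a measure of aggregation propensity. Fold changes are on a log2 scale, and higher values mean more of the domain stayed soluble.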
For “HMNQAIIVPDVKGLPLEEATTFFENNDLRYTVIDSVYTKDVPPGAIYEMVPGAGSKVKEGRIIFVTLNAR”, the “soluble fraction (log2)” value is -0.565. The value for “HMNQASLTYSEFIANVESKAITRVTISGDTISGILADGKPFQTIYPMADLELLPILRRSGVDINVKEVQ” was 0.22. The result for “HMNQEIELLLREPDFTSAARLAMAINERFTNSARAIDPTSVKVRMPEGLDQASVDFVARLEDIEMSPDT” reads -0.587; that for “HMNQEQQSAVMSALKATLPDLEAALEARQFKESKQLLKTAQNQFQQLDGRNRRGFQARIQLLAGQFRELS”, -0.00484; that for “HMNQIDDADRKRVVDEVAGQFSSMSLTEMRSDREKLLSRIIPQVQTTLNRLGLQTIDVEGIAREVIARVG”, -0.288.

Consider “HMNQIFAPMPGLVLEVKLSEGDVVAEGESAIILEAMKMENIIKSPINGIVKKVHVKKGQTIEKNTLIISFK”, for which the “soluble fraction (log2)” value was -1.06. With “HMNQLSYTERRVLQVIEGGTTKTGEIEQALAAKMSRPTVHRALDALVGANRIHRLARGEYALGPAP”, the “soluble fraction (log2)” value was 0.321. The value for “HMNQRQKQLLSILEQQGDWMKGKALATLLAVSDRTIRSDIEKINREVEGSILSHPHKGYLLSVENRQIAET” was 0.0959. The value for “HMNQSKYQTIADELKSKILSGEYPENTTIPPELQLQKDYQVSRHTIRQAIALLANEGFLRKEKGSGTYVDV” was 0.254; that for “HMNQTTYTVLYSGMDPADTGKVLTALNEMGVDARTQGEDTVLVPADRADEIRLELAAQGYPTS” was -0.0312.

Regarding “HMNQYIFVLNEKGARITSFVDNTIPKEELIALAKQDYPNAADYIYSADGDSMLDEFMRGKLYVNGQFVAA”, the “soluble fraction (log2)” value was -0.475. For “HMNREIVVYITGAVDNPGLYRLPLDSRLDDVLKLAVLSTNADREVLNPAQKLKDGQKIVVPYIVE”, the “soluble fraction (log2)” value was -0.452. The value for “HMNRGITVIVNNEEIKMKEKAQYVVVDIFDYIDFDLTVPKGSINITLNGENTPYTASIKDGDVIEVFW” was -1.56; that for “HMNRIARRELMEQLFADNKITTQEQLQQLLRAEGVEVTQATISRDMRILNIVKVSDQNGNTYYKQMK” was 0.0823.

In the case of “HMNRIEMTEPIIIKDLSRETGIPWVAIQKRLAQDGIMANINTTIEAEKAQLIAVDYGIELAVV”, the “soluble fraction (log2)” value was -0.54. As to “HMNRIGERIKRKRELRNLNLGELAEKVGISASALSQIEKSKSFPSVITLKSIAEQLRTTVGELIGEN”, the “soluble fraction (log2)” value came out at 0.328. In the case of “HMNRIKIYPTPGSKVLSIENINFSLIHDFKILDIFGREVKNFTVSSEKNTKMLVDTSKLSDGLYFIFFNTF”, the “soluble fraction (log2)” value was -0.61. The result for “HMNRLEFLQGLKAELEGRVPHSIIQENLRYYDSYISDEAAKGQSEEDVVESLGGPRIIARTIVDAA” reads -0.52; that for “HMNRNEFMERLEYLLSDIPQEEKADAIAYYRDYLEEAGDDAGKAIQDFGSPERIAAMIRSELAG”, -0.841. As to “HMNRQTGTVKWFNDAKGFGFITPESGPDLFVHFRSIQGAGFKSLQEGQRVTFVAVQGQKGMQADQVQA”, the “soluble fraction (log2)” value was -0.429. Take “HMNRTKQIYNELLFRLDQGVYPPESKFPSESQLADEFSVSKVTMNKIVSMLASSGRLSRGVRGAGTFVSSP”: the “soluble fraction (log2)” value amounted to 0.319. The result for “HMNRYPIQTEVHAFNDDIIKEAINFEMSRGGQIFFVNNRIPQLYELENTIHRLVPDARVVIGHGQMP” reads -0.722. Regarding “HMNSFKIYPNPSSREVVRFNQAQDVKVYDTLGKLILSAKNTSAIDTKSFNTGIYFIKTANGLTKKLIV”, the “soluble fraction (log2)” value is -0.0877. For the sequence “HMNSGFEVFREVVNQGSFIGAANALGISAPAVSKQIKLLENRLGLLLLYRTTRNVTLTDIGKQLFDTLDNS”, the “soluble fraction (log2)” value was -1.37. Turning to “HMNSKKRQAILESLRSVTDHPTAEMIYNRLKPEYPDLSLGTVYRNLAMFLEEGQVISVGTVDGQERYDAR”, the “soluble fraction (log2)” value was determined as 0.34. With “HMNSKSFIFHIEDEEGIRLDVFLADNLPDVSRSYVQKLIDEEHVKVNGQSAKSRLKTVSGMEITVDVPAPK”, the “soluble fraction (log2)” value was -0.543. The result for “HMNSLGYSDFVVDVQNERVASVVIEGLIINGERRDGTKFRTVLPTIGDQRLMDDLINHNVKVLARE” reads 0.226.

“HMNSLTVPDITNRTLAEASQVLLDMGLTPIPDAVAKDGVGDDVVYAQSPPPNVGAREGDVVTITYNPA”: the “soluble fraction (log2)” value came out at 0.093. As for “HMNSNISYSEFLSQVEKGTINSVEITGNSIKGIYADGGEFITFSPGDPGLIDKLQRSDIEILATPPA”, the “soluble fraction (log2)” value is -0.593. The value for “HMNSPSKVIDISQLRKGMFVQLDLGWMSHPFAVGSFKVSTDEQIQTLRGLGLSEVRYIPEKSDPA” was -0.896; that for “HMNSQSGKGGVGYILETKYGLNLPPKMREAMGYAAKGVSDHLHKELHPDEIFDLFKKTFENVGQPYS” was 0.197. For the sequence “HMNSSLLGKRIKSLREDHDLTQKELSLMIGLTPKMISFYENNQRTPPLDILLKLAKIFEVSVDYLIGYA”, the “soluble fraction (log2)” value is -0.0642. The result for “HMNSTRAPYLLDFEEDAAIREARRAGLVPRIARQPSGEPVGRVILQSHDYDYPMKRGDTILITISSG” reads -0.797.

For the sequence “HMNSTSGIAGVGYWINQYRKKKGMSPVDKKSPLVRRVYDWVQEQYDEGRITIISDAELTRQTELAMEA”, the “soluble fraction (log2)” value came to 0.0383. As for “HMNSVAASLREISIKVSGTEDADKVSRLQELSQMPKLDASGIAEANTLLEQLRAKYGDLGLSVDTARGRIV”, the “soluble fraction (log2)” value amounted to 0.0674. The value for “HMNSVSIAPEMLNWVIAHIQMNSLPKQIVEHLTAWISGQKEPTFNQIEKVSRATGIPLGYFFLEQPPKE” was -1.02. Turning to “HMNSYKGELLVDDKNIRLDLYLFNQFNFFSRTKIKNYILKGNVLVNNNKTSPSYILKGSEKIYYDFSVS”, the “soluble fraction (log2)” value is -0.251.

As to “HMNTEVDKVLLRSGEAYFGEVLLRNDELVMMKTQDGARFQFPVSEIKSIEKVSVADALRHINS”, the “soluble fraction (log2)” value turned out to be 0.162.

For “HMNTGFPIILETSDAANLTVGAPIMYRGVEVGKIRNMELNSLGDRVLIHILIGHKYQHLVRQNSEFWFSS”, the “soluble fraction (log2)” value is -2.1. The result for “HMNTKDRIKQLAAQRKITIAELERKLHIANGTIGKWDKQNPSIEPLKKLADYFGVTTDYLLGRT” reads -0.219; that for “HMNTKLKPLYLLDIFREMTDERHRMTVPELLEELQRRGITAERKGIYRDIDALIQYGADIKHTGTGYYLAR”, 0.18.

“HMNTKLSYSDLIEKIEAGQVEKVELDAGGSSAIVKLKNDNIEKRVNVPSIDNLMENLQDNMKTGNISVTE”: the “soluble fraction (log2)” value was -0.202. In the case of “HMNTLLGLSNSFQDNKDLENANSISRRFISYRPRSEAELRIRLLKVFSHEIVLESVAQMYREGLLNDQRF”, the “soluble fraction (log2)” value is -1.65. The value for “HMNTLTKEDIQKAIDVIPIDFKSVVILNLVEGFSYKETAEILEIPIGTVMSRLHRGRKILQKLLWEYSSSK” was -0.557; that for “HMNTTTTKVVSVSSLNMRSGPSTSYNIIEVLTKDTQVEVISVEDGWAKIKYNSKTGYVSNQYLSDKK” was -0.0101. The result for “HMNTVAKELATQATQAKKRAFLDAYAETGIIKRAAEIAGIERKSHYLWLEKDPEYVEAFKSAGEQ” reads -0.0116; that for “HMNTVSVGNLGLSVRAVNALKQAGIDTYDKLQELSWEELLLIPKLGQVTAAEIYRFITSYKKG”, -0.491; that for “HMNVAETITLGKRLFNHALTILGKKQRNISRKQLKNFLNDLGLKDSKDLYESIGTGDKNPILMAQLLLG”, -0.0687. The value for “HMNVAVGNSKLVGVAGERAYFVNGVGAAARTLSLQVGDALPTGEKVRRIERDGVTMTGASGDVRLSVLP” was 0.138; that for “HMNVDALIGTKGIVVQPIRPFAVGQVKVNGQVWSAVGKTPETDIEQGREVKVHAIEGVKLVVTPT” was -0.134.
